# Measured values reported in patent publication US20110300156A1 (Genmab, published 2011).
# T1: murine tissue factor (TF) on transfected HEK293F cells (murine, UniProt P20352 29-294)
# T1 construct: whole, on cells; also called murine TF; TFmm
# T1 sequence (looked up): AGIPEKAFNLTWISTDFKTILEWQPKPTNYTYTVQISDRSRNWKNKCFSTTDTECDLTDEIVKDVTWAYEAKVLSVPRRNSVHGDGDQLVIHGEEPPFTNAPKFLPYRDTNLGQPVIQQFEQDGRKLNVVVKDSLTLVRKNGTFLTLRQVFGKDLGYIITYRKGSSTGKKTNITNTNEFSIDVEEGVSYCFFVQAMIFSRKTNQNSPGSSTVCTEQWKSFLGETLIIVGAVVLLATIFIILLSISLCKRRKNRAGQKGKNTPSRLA
# B1: anti-TF HuMab 098 (antibody, V domains shown)
# VH: QVQLVQSGAEVRKPGSSVKVSCKASGGSFNNYPIFWVRQAPGQGFEWMGRIIPILGITAYAQKFQGRVTITADKSTSTAYMELNSLRSEDTAVYYCAGGDDLDAFDIWGQGTMVSVSS
# VL: DIQMTQSPSSLSASVGDRVTITCRASQGISSWLAWYQQKPEKAPKSLIYAASSLQSGVPSRFSGSGSGTDFTLTISSLQPEDFATYYCQQYNSYPYTFGQGTKLEIK
# notes: Human monoclonal antibody from HuMab mice; also called HuMab-TF-098; HuMab-TF-98
# B2: anti-TF HuMab 003 (antibody, V domains shown)
# VH: QVQLVQSGAEVKKPGSSVKVSCKAPRGTFSYYTISWVRQAPGQGLEWMGRIIPILGVANYAQKFQGRVTITADKSTSTAYMELSSLRSEDTAVYYCAREGDRRYFDYWGQGTLVTVSS
# VL: AIQLTQSPSSLSASVGDRVTITCRASQDISSALAWYQQKPGKAPKLLIYDASILESGVPSRFSGSGSGTDFTLTISSLQPEDFATYYCQQFNSYPLTFGGGTKVEIK
# notes: Human monoclonal antibody from HuMab mice; also called HuMab-TF-003
# Tests used:
# [1] = target: T2, human tissue factor (TF), membrane-bound on cells (human, UniProt P13726 33-295); test: FACS, A431 cells
# T2 construct: whole, on cells; also called cellular TF
# Protocol: (§1) Cells were resuspended in PBS (2×10⁶ cells/ml), put in 96-well V-bottom plates (50 μl/well). 50 μl of serially diluted HuMab in FACS buffer (PBS supplemented with 0.1% BSA and 0.02% Na-azide) was added to the cells and incubated for 30 minutes on ice. After washing three times with FACS buffer, 50 μl of phycoerythrin (PE)-conjugated goat anti-human IgGFc (Jackson ImmunoResearch), diluted 1:100 in FACS buffer, was added. After 30 minutes on ice (in the dark), cells were washed three times, and specific binding of the HuMabs was detected by flow cytometry on a FACSCalibur (BD Biosciences). HuMab-KLH was used as a negative control. Mouse anti-TF followed by PE-conjugated anti-mouse IgGFc was used as positive control. Binding curves were analyzed using non-linear regression (sigmoidal dose-response with variable slope) using GraphPad Prism V4.03 software (GraphPad Software, San Diego, Calif., USA).
# [2] = target: T2, human tissue factor (TF), …; test: FACS, Bx-PC3 cells
# Protocol: as §1
# [3] = target: T2, human tissue factor (TF), …; test: FACS, MDA-MB-231 cells
# Protocol: as §1
# [4] = target: T2, human tissue factor (TF), …; test: cell-based or functional assay
# [5] = target: T2, human tissue factor (TF), …; test: cell-based or functional assay; remark: listed apart in the source
# TF (Innovin) [6] = target: T3, TF (Innovin) (UniProt P13726 33-295, limits assumed); test: cell-based or functional assay
# [7] = target: T2, human tissue factor (TF), …; test: cell-based or functional assay; remark: listed apart in the source
# [8] = target: T2, human tissue factor (TF), …; test: FACS, A431 cells, 30 µg/mL
# Protocol: as §1
# [9] = target: T2, human tissue factor (TF), …; test: FACS, Bx-PC3 cells, 30 µg/mL
# Protocol: as §1
# [10] = target: T2, human tissue factor (TF), …; test: FACS, MDA-MB-231 cells, 30 µg/mL
# Protocol: as §1
# [11] = target: T2, human tissue factor (TF), …; test: FACS, TF transfected CHO cells (S1015-TF)
# Protocol: as §1
# [12] = target: T2, human tissue factor (TF), …; test: FACS, TF transfected CHO cells (S1015-TF), 7.5 µg/mL
# Protocol: as §1
# [13] = target: T4, TFECDHis (extracellular domain of tissue factor, amino acid 1-251, with C-terminal His tag) (human, UniProt P13726 33-251); test: competition ELISA, inhibition of FVIIa (100 nM) binding to coated TFECDHis
# T4 construct: range 1-251; The stated range 1-251 starts at residue 1 of NP-001984; also called extracellular domain of TF
# Protocol: ELISA plates were coated overnight with TFECDHis (0.5 μg/mL, 100 μL per well). Plates were emptied, blocked with PBS containing 2% (v/v) chicken serum (1 hour, RT), and emptied again. […] Plates were washed and incubated with swine-anti-rabbit IgG-HRP antibody (1:2,500; DAKO). After washing, the immune complexes were visualized using ABTS as a substrate.
# [14] = target: T1, murine tissue factor (TF) on …; test: FACS on transfected HEK293F cells, 30 µg/mL antibody [panel K]
# [15] = target: T2, human tissue factor (TF), …; test: FACS on MDA-MB-231 cells (~900.000 TF molecules/cell) [panel MDA-MB-231 cells]
# Protocol: as §1
# Binding of anti-TF HuMabs to membrane-bound TF on cell lines expressing different levels of TF was determined by FACS analysis, essentially as described supra. Mouse anti-TF antibody followed by PE-conjugated anti-mouse IgGFc was used as a positive control. Fluorescence was measured on a FACSCantoII. Binding curves were analyzed essentially as described supra, using GraphPad Prism 5 software. The amount of TF molecules on cell lines was determined by Qifi kit (Dako, Glostrup, Denmark), according to the manufacturer's instructions.
# [16] = target: T4, TFECDHis (extracellular domain of …); test: SPR avidity format: TFECDHis immobilized, bivalent HuMab as analyte (printed as avidity nM)
# Protocol: (§2) Antibody binding to TF was analyzed by surface plasmon resonance in a BIAcore 3000 (GE Healthcare). TFECDHis was used for the analysis. HuMab antibodies (500 resonance units) were immobilized on the CM-5 sensor chip according to the procedure recommended by the manufacturer. Briefly, after surface activation by EDC and NHS HuMab antibody was injected over the activated CM-5 surface in 10 mM sodium-acetate, pH ranging from 4.0 to 5.5 at 5 μl/min. followed by 1 M Ethanolamine for deactivation. Concentration series of TFECDHis in HBS-EP buffer were injected over the immobilized antibodies at a flow rate of 30 μl/min for 180 sec. Regeneration of the HuMab surface was performed by injection of 10 mM Glycine-HCl pH 2.0 or 10 mM sodium acetate pH 3.0. Kinetic analysis was performed using double reference subtraction and model 1:1 (langmuir) binding analysis.
# TF (TFECDHis) binding to TF-specific HuMabs was determined essentially as described above, with TFECDHis being immobilized on the CM-5 sensor chip (300 resonance units), and concentration series of Humab antibodies used for kinetic analysis. Kinetic analysis was performed using double reference subtraction and model 1:1 (langmuir) binding analysis.
# TF (Innovin) [17] = target: T3, TF (Innovin); test: cell-based or functional assay; remark: listed apart in the source
# [18] = target: T4, TFECDHis (extracellular domain of …); test: ELISA, coated TFECDHis, mean of 3
# Protocol: The specificity of the obtained anti-TF HuMabs was evaluated by ELISA. ELISA plates (Microlon; Greiner Bio-One) were coated overnight at +4° C. with 0.5 μg/mL of TFECDHis in PBS, pH 7.4. Coated ELISA plates were emptied and blocked for one hour at room temperature with 2% (v/v) chicken serum (Gibco, Paisley, Scotland) in PBS and washed with PBS containing 0.05% Tween 20 (PBST). Subsequently, HuMabs, serially diluted in PBSTC (PBS supplemented with 2% (v/v) chicken serum and 0.05% (v/v) Tween-20), were incubated for 1 hr at RT under shaking conditions (300 rpm). Bound HuMabs were detected using HRP-conjugated goat-anti-human IgG antibodies (Jackson ImmunoResearch) diluted 1:5,000 in PBSTC, which were incubated for 1 hr at RT under shaking conditions (300 rpm). […] HuMab-KLH (a human monoclonal antibody against KLH (keyhole limpet haemocyanin)), was used as a negative control. Mouse anti-human TF (ERL) was used as positive control (HRP labeled anti-mouse IgG as conjugate). Binding curves were analyzed using non-linear regression (sigmoidal dose-response with variable slope) using GraphPad Prism V4.03 software.
# [19] = target: T4, TFECDHis (extracellular domain of …); test: SPR BIAcore 3000, HuMab immobilized, TFECDHis analyte
# Protocol: as §2
# [20] = target: T1, murine tissue factor (TF) on …; test: FACS on transfected HEK293F cells, 30 µg/mL antibody [panel A]
Binder,EC50 [1] [nM],EC50 [2] [nM],EC50 [3] [nM],% max inhibition of FVIIa induced ERK phosphorylation (A431) [4] [%],"IC50, inhibition of FVIIa induced ERK phosphorylation (A431) [4] [nM]","IC50, inhibition of FVIIa induced IL-8 release (MDA-MB-231) [5] [nM]",max inhibition of FVIIa induced IL-8 release (MDA-MB-231) [5] [%],% max inhibition of FXa generation (TF (Innovin) [6]) [%],"IC50, inhibition of FXa generation (TF (Innovin) [6]) [nM]","EC50 of ADCC, Bx-PC3 cells [7] [nM]","EC50 of ADCC, MDA-MB-231 cells [7] [nM]",Max MFI [8],Max MFI [9],Max MFI [10],EC50 [11] [nM],Max MFI [12],IC50 [13] [nM],max inhibition [13] [%],other results
B1,1.4,1.38,0.99,64,1.89,9.3,59,14,0.43,0.02,0.15,2760,1150,1960,0.96,5230,0.8,85,"EC50 of ADCC, A431 cells [7]: 0.07 nM; binding result [14]: no binding (tested: 30 µg/mL); EC50 (read off the curve) [15]: ~0.05 mg/L; Kd [16]: 4.85 nM"
B2,6.94,4.98,3.2,63,7.99,23.7,76.2,21,0.07,0.17,0.29,2530,1110,1800,2.06,4250,1.9,89,"IC50, inhibition of blood coagulation (TF induced clotting time) (TF (Innovin) [17]): 7.3 nM; EC50 [18]: 0.46 nM; Kd [19]: 4.51 nM; binding result [20]: binds"
